Results as given in the supplement of paper PMC7125110.
± gives the standard error. Variants at the floor of the assay were thinned out.

B1: glmS ribozyme (parent)
chain: AUAAAAGCGCCAGAACUACAGAAAUGUAGUUGACGAGGAGGAGGUUUAUCGAAUUUUCGGCGGAUGCCUCCAAA

What was measured:
Details in all cases: with glucosamine-6-phosphate
[1] = variants of: B1; test: self-cleavage kobs at 160 uM GlcN6P; higher = faster cleavage; RNA array
In short: (§1)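 Tracking of barcoded ribozyme variants used a hybridised Cy3 probe at 37 °C, after in situ transcription by E. coli RNA polymerase on sequenced MiSeq chips. The flowed solution held 40 μM to 10 mM glucosamine-6-phosphate in HEPES/KCl/Mg(OAc)2 buffer, and imaging ran over ~14 h. kobs was taken from exponential decay fits of normalised per-tile medians, and kcat and KM from weighted Michaelis–Menten fits.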

[2] = variants of: B1; test: self-cleavage kobs at 640 uM GlcN6P; higher = faster cleavage; RNA array
In short: as §1

[3] = variants of: B1; test: self-cleavage kobs at 2500 uM GlcN6P; higher = faster cleavage; RNA array
In short: as §1

[4] = variants of: B1; test: self-cleavage kobs at 10000 uM GlcN6P; higher = faster cleavage; RNA array
In short: as §1

C10G U31C A48U C61A C70G
self-cleavage kobs at 160 uM GlcN6P [1]: < 1e-05 s⁻¹ | self-cleavage kobs at 640 uM GlcN6P [2]: < 1e-05 s⁻¹

A12U C34A
self-cleavage kobs at 160 uM GlcN6P [1]: < 1e-05 s⁻¹ | self-cleavage kobs at 640 uM GlcN6P [2]: < 1e-05 s⁻¹

C11U U55G C71A
self-cleavage kobs at 160 uM GlcN6P [1]: 3.73e-05 ± 1.5e-05 s⁻¹ | self-cleavage kobs at 640 uM GlcN6P [2]: 8.41e-05 ± 1.7e-05 s⁻¹ | self-cleavage kobs at 2500 uM GlcN6P [3]: 0.000143 ± 5.3e-05 s⁻¹

C10U A53C
self-cleavage kobs at 160 uM GlcN6P [1]: < 1e-05 s⁻¹ | self-cleavage kobs at 640 uM GlcN6P [2]: < 1e-05 s⁻¹

A12G C34A A36G
self-cleavage kobs at 160 uM GlcN6P [1]: < 1e-05 s⁻¹ | self-cleavage kobs at 2500 uM GlcN6P [3]: < 1e-05 s⁻¹

A12G C58U G59A
self-cleavage kobs at 160 uM GlcN6P [1]: < 1e-05 s⁻¹

C11U C34U G66C
self-cleavage kobs at 160 uM GlcN6P [1]: < 1e-05 s⁻¹ | self-cleavage kobs at 2500 uM GlcN6P [3]: < 1e-05 s⁻¹

A12U A15G G41A
self-cleavage kobs at 160 uM GlcN6P [1]: 0.000272 ± 4.5e-05 s⁻¹ | self-cleavage kobs at 640 uM GlcN6P [2]: 0.00098 ± 0.00018 s⁻¹

C10G U65C
self-cleavage kobs at 160 uM GlcN6P [1]: < 1e-05 s⁻¹ | self-cleavage kobs at 640 uM GlcN6P [2]: < 1e-05 s⁻¹ | self-cleavage kobs at 2500 uM GlcN6P [3]: < 1e-05 s⁻¹ | self-cleavage kobs at 10000 uM GlcN6P [4]: < 1e-05 s⁻¹

C11G A15G U65C
self-cleavage kobs at 160 uM GlcN6P [1]: < 1e-05 s⁻¹

C10G U45C
self-cleavage kobs at 160 uM GlcN6P [1]: < 1e-05 s⁻¹ | self-cleavage kobs at 2500 uM GlcN6P [3]: < 1e-05 s⁻¹

C10U A33C G59A G66U
self-cleavage kobs at 160 uM GlcN6P [1]: < 1e-05 s⁻¹ | self-cleavage kobs at 640 uM GlcN6P [2]: < 1e-05 s⁻¹

C10A G38A G41U G44A G59U
self-cleavage kobs at 160 uM GlcN6P [1]: < 1e-05 s⁻¹ | self-cleavage kobs at 640 uM GlcN6P [2]: < 1e-05 s⁻¹ | self-cleavage kobs at 2500 uM GlcN6P [3]: < 1e-05 s⁻¹

C11G A33C G35C G62A
self-cleavage kobs at 160 uM GlcN6P [1]: < 1e-05 s⁻¹ | self-cleavage kobs at 640 uM GlcN6P [2]: < 1e-05 s⁻¹

C11A G13A A39G
self-cleavage kobs at 160 uM GlcN6P [1]: < 1e-05 s⁻¹ | self-cleavage kobs at 640 uM GlcN6P [2]: < 1e-05 s⁻¹

A12U U47C U65C
self-cleavage kobs at 160 uM GlcN6P [1]: < 1e-05 s⁻¹

A12G G32A C67G C68U
self-cleavage kobs at 160 uM GlcN6P [1]: 0.000534 ± 0.00025 s⁻¹

A12G G38U U57C
self-cleavage kobs at 160 uM GlcN6P [1]: < 1e-05 s⁻¹ | self-cleavage kobs at 640 uM GlcN6P [2]: < 1e-05 s⁻¹ | self-cleavage kobs at 10000 uM GlcN6P [4]: < 1e-05 s⁻¹

C10G G29A G62U C71U
self-cleavage kobs at 160 uM GlcN6P [1]: < 1e-05 s⁻¹ | self-cleavage kobs at 640 uM GlcN6P [2]: < 1e-05 s⁻¹ | self-cleavage kobs at 2500 uM GlcN6P [3]: < 1e-05 s⁻¹

C10G C11A C16U G38U
self-cleavage kobs at 160 uM GlcN6P [1]: < 1e-05 s⁻¹ | self-cleavage kobs at 640 uM GlcN6P [2]: < 1e-05 s⁻¹ | self-cleavage kobs at 10000 uM GlcN6P [4]: < 1e-05 s⁻¹

C11G A14C U31G A33U
self-cleavage kobs at 160 uM GlcN6P [1]: < 1e-05 s⁻¹ | self-cleavage kobs at 640 uM GlcN6P [2]: < 1e-05 s⁻¹ | self-cleavage kobs at 2500 uM GlcN6P [3]: < 1e-05 s⁻¹

A12U G51A U55C
self-cleavage kobs at 160 uM GlcN6P [1]: < 1e-05 s⁻¹

C11A G13U U47G A52C A53C
self-cleavage kobs at 160 uM GlcN6P [1]: < 1e-05 s⁻¹

A12U A15C U45C A48C
self-cleavage kobs at 160 uM GlcN6P [1]: < 1e-05 s⁻¹ | self-cleavage kobs at 2500 uM GlcN6P [3]: < 1e-05 s⁻¹

C11A G38A U45A
self-cleavage kobs at 160 uM GlcN6P [1]: < 1e-05 s⁻¹

C10A U31G A42U
self-cleavage kobs at 160 uM GlcN6P [1]: < 1e-05 s⁻¹ | self-cleavage kobs at 640 uM GlcN6P [2]: < 1e-05 s⁻¹ | self-cleavage kobs at 2500 uM GlcN6P [3]: < 1e-05 s⁻¹

A12U A15C A42G
self-cleavage kobs at 160 uM GlcN6P [1]: 0.00123 ± 0.0005 s⁻¹ | self-cleavage kobs at 640 uM GlcN6P [2]: 0.00381 ± 0.0017 s⁻¹ | self-cleavage kobs at 2500 uM GlcN6P [3]: 0.0282 ± 0.014 s⁻¹

C10G C19A A48C
self-cleavage kobs at 160 uM GlcN6P [1]: < 1e-05 s⁻¹ | self-cleavage kobs at 640 uM GlcN6P [2]: < 1e-05 s⁻¹

C10U A12C U31G A42G
self-cleavage kobs at 160 uM GlcN6P [1]: < 1e-05 s⁻¹

C11G A33U U49C C50U U65C
self-cleavage kobs at 160 uM GlcN6P [1]: < 1e-05 s⁻¹

A12G G35U A53U
self-cleavage kobs at 160 uM GlcN6P [1]: < 1e-05 s⁻¹ | self-cleavage kobs at 10000 uM GlcN6P [4]: < 1e-05 s⁻¹

A12G G40U G62A
self-cleavage kobs at 160 uM GlcN6P [1]: < 1e-05 s⁻¹

C11U C61A G63C
self-cleavage kobs at 160 uM GlcN6P [1]: < 1e-05 s⁻¹ | self-cleavage kobs at 640 uM GlcN6P [2]: < 1e-05 s⁻¹

C11A A33U G66A
self-cleavage kobs at 160 uM GlcN6P [1]: < 1e-05 s⁻¹ | self-cleavage kobs at 640 uM GlcN6P [2]: < 1e-05 s⁻¹ | self-cleavage kobs at 2500 uM GlcN6P [3]: < 1e-05 s⁻¹

C10A G32C G51U
self-cleavage kobs at 160 uM GlcN6P [1]: < 1e-05 s⁻¹

C10U G40C G44U
self-cleavage kobs at 160 uM GlcN6P [1]: < 1e-05 s⁻¹ | self-cleavage kobs at 2500 uM GlcN6P [3]: < 1e-05 s⁻¹ | self-cleavage kobs at 10000 uM GlcN6P [4]: < 1e-05 s⁻¹

C11G U31C C71U
self-cleavage kobs at 160 uM GlcN6P [1]: < 1e-05 s⁻¹ | self-cleavage kobs at 2500 uM GlcN6P [3]: < 1e-05 s⁻¹

C10U C16A U65A
self-cleavage kobs at 160 uM GlcN6P [1]: < 1e-05 s⁻¹ | self-cleavage kobs at 640 uM GlcN6P [2]: < 1e-05 s⁻¹ | self-cleavage kobs at 2500 uM GlcN6P [3]: < 1e-05 s⁻¹ | self-cleavage kobs at 10000 uM GlcN6P [4]: < 1e-05 s⁻¹

A12G A14C G60C
self-cleavage kobs at 160 uM GlcN6P [1]: < 1e-05 s⁻¹ | self-cleavage kobs at 640 uM GlcN6P [2]: < 1e-05 s⁻¹

C11A C16A
self-cleavage kobs at 160 uM GlcN6P [1]: < 1e-05 s⁻¹ | self-cleavage kobs at 10000 uM GlcN6P [4]: 2.86e-05 ± 1e-05 s⁻¹

C10U C11G A39C
self-cleavage kobs at 160 uM GlcN6P [1]: < 1e-05 s⁻¹ | self-cleavage kobs at 640 uM GlcN6P [2]: < 1e-05 s⁻¹

C10U G40A
self-cleavage kobs at 160 uM GlcN6P [1]: < 1e-05 s⁻¹ | self-cleavage kobs at 10000 uM GlcN6P [4]: < 1e-05 s⁻¹

C10A U55A C67G
self-cleavage kobs at 160 uM GlcN6P [1]: 6.55e-05 ± 3e-05 s⁻¹ | self-cleavage kobs at 640 uM GlcN6P [2]: 0.000418 ± 0.00019 s⁻¹

C10U C11G A33U
self-cleavage kobs at 160 uM GlcN6P [1]: < 1e-05 s⁻¹ | self-cleavage kobs at 640 uM GlcN6P [2]: < 1e-05 s⁻¹ | self-cleavage kobs at 2500 uM GlcN6P [3]: < 1e-05 s⁻¹ | self-cleavage kobs at 10000 uM GlcN6P [4]: < 1e-05 s⁻¹

A12C C50A A53G G63U
self-cleavage kobs at 160 uM GlcN6P [1]: < 1e-05 s⁻¹

C11A A39C C70G
self-cleavage kobs at 160 uM GlcN6P [1]: < 1e-05 s⁻¹ | self-cleavage kobs at 640 uM GlcN6P [2]: < 1e-05 s⁻¹ | self-cleavage kobs at 2500 uM GlcN6P [3]: < 1e-05 s⁻¹

C11A U46G
self-cleavage kobs at 160 uM GlcN6P [1]: < 1e-05 s⁻¹ | self-cleavage kobs at 640 uM GlcN6P [2]: < 1e-05 s⁻¹ | self-cleavage kobs at 10000 uM GlcN6P [4]: 4.72e-05 ± 2.1e-05 s⁻¹

A12C G63U
self-cleavage kobs at 160 uM GlcN6P [1]: < 1e-05 s⁻¹ | self-cleavage kobs at 640 uM GlcN6P [2]: < 1e-05 s⁻¹ | self-cleavage kobs at 10000 uM GlcN6P [4]: < 1e-05 s⁻¹

C10U G13U A42U U46G U57A
self-cleavage kobs at 160 uM GlcN6P [1]: < 1e-05 s⁻¹ | self-cleavage kobs at 640 uM GlcN6P [2]: < 1e-05 s⁻¹ | self-cleavage kobs at 2500 uM GlcN6P [3]: < 1e-05 s⁻¹

A12G G32C C71A
self-cleavage kobs at 160 uM GlcN6P [1]: < 1e-05 s⁻¹ | self-cleavage kobs at 640 uM GlcN6P [2]: < 1e-05 s⁻¹

A12U A15G C16G U30C A33U A48G G66A
self-cleavage kobs at 160 uM GlcN6P [1]: < 1e-05 s⁻¹ | self-cleavage kobs at 640 uM GlcN6P [2]: < 1e-05 s⁻¹

C11A A15U C70G
self-cleavage kobs at 160 uM GlcN6P [1]: 4.95e-05 ± 1.9e-05 s⁻¹ | self-cleavage kobs at 640 uM GlcN6P [2]: 0.000432 ± 0.00013 s⁻¹

C10G U31C A33C G51U C71U
self-cleavage kobs at 160 uM GlcN6P [1]: < 1e-05 s⁻¹ | self-cleavage kobs at 640 uM GlcN6P [2]: < 1e-05 s⁻¹

C11U G51U A53G
self-cleavage kobs at 160 uM GlcN6P [1]: < 1e-05 s⁻¹

C10A G35A A39G
self-cleavage kobs at 160 uM GlcN6P [1]: < 1e-05 s⁻¹ | self-cleavage kobs at 2500 uM GlcN6P [3]: < 1e-05 s⁻¹

A12G U49A G63U
self-cleavage kobs at 160 uM GlcN6P [1]: < 1e-05 s⁻¹ | self-cleavage kobs at 640 uM GlcN6P [2]: < 1e-05 s⁻¹
